Data as given in WO2020165374A1 (dated 2020).

What was measured:
[1] = molecular target: T1, recombinant human PD-1 (Sino Biologicals, reference 10377-H08H) (human, UniProt Q15116 25-167); test: ELISA, recombinant hPD1 immobilized, anti-human IgG peroxidase detection
T1 construct: Bought protein; also called recombinant hPDl; Human recombinant PD-1

[2] = molecular target: T2, human recombinant IL-15 (SinoBiological ref#10360-H07E) (human, UniProt P40933 49-162); test: ELISA, human IL-15 immobilized, anti-human IgG peroxidase detection
T2 construct: also called Human IL-15; IL-15 cytokine
T2 sequence (P40933 49-162 limits assumed, stated change not applied): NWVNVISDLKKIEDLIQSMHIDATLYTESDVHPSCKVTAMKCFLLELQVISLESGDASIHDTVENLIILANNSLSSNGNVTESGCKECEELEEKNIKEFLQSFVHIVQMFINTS

T1 sequence (Q15116 25-167 limits assumed): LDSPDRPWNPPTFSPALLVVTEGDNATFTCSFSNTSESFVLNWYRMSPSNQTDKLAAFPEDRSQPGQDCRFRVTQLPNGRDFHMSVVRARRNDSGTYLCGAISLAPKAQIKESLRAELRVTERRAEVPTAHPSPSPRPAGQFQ

binding result [1]: binds
binding result [2]: no binding
B1: anti-PD-1 antibody (antibody, human IgG4 S228P, kappa, V domains shown)
VH: QIQLVQSGSELKKPGASVKVSCKASGYTFTHYAMNWVRQAPGQGLEWMGWINTNTGEPTYAQGFTGRFVFSLDTSVSTAYLQISSLKAEDTAVYYCAREREPGMDNWGQGTLVTVSS
VL: DVVMTQSPLSLPVTLGQPASISCRSSQSLVHANTNTYLEWYQQRPGQSPRLLIYKVSNRFSGVPDRFSGSGSGTDFTLKISRVEAEDVGVYYCFQGTHVPNTFGQGTKLEIKR
notes: also called Anti-PDl; anti-PD-1 alone
